{
  "source": "the DeepSol protein solubility set",
  "data": [
    {"assay": "soluble on expression in E. coli; label from the status in PepcDB or PDB records", "values": [
      {"sequence": "MGSDKIHHHHHHMSYSLQKSMVAKVVGLSLVMLLAACSSDQRYKRQVSGDESYLKAPAQHVLNTPAGMILPVQNGDFDIPPVTLNGAVGKELDIRPPVQPLALLNGSRTQTSGDTATLLLENSAQNSQIWSQVIRVLQDNAFTIANRQDASQTLTTDWISWPREDENVPYQGRYQISVQQQGYQVALIVKLLGLQLNGQPVTTSDQTQRYAGLMLNVLSNGLDSQATARENALANRTIGSLDVQSGADDTGLPLLIVRGPYTVVWDRLPVALDKIGMKVNDRSRPQGSVSVTYRAPSGGTWDDLGAKNPELPNGDYKLQVGDLDNRSSLQFIDSKGHTLTQSQNDALVAVFQAAFSK", "soluble on expression in E. coli": "not soluble"},
      {"sequence": "MGSDKIHHHHHHMDSNIFISTYHIRYGQEDSSMNKLKILFVLFTNIKTGAGTEKSLYYYLKYADISKFDITVLQTNLMPGGQRLSDSDLETIKNKAKFIEIKDYRGLLGFIRNKYLSYLLNLFILPMLLKICKYTVYHKKLKQLKDSNVIYLFNNDYSNLFSHKSVVIGSNHCAFDNLDSFSQKLIARLLSLRIILPSITAFHLFPHNVSFKEYFGNKPLILLSNGVDTDLYYPSHSQNLKTKILFVGRLEEVKGILMAIKVYNNIKKMFPVEFVIVGSGSLESEVDKLCASDTNVKHFKHVAENDLANIYRSCDIFLYPTQGDSYALVVLEALSSGLKVVTTVNIYRVYNDFIRFNVIKFADFDEKSLTQALLDIKNTVINKNEIHNYIEKNYSWKKVSENLFNLMYNLAVKN", "soluble on expression in E. coli": "not soluble"},
      {"sequence": "MSLHNNIDAFTLKPRHVEQIRQALPEVAITVSASDSDFMDRLPDAEYALVWVFKPEWYATAPRLKALFTPAAGRDWVAADPSGRVMTCHGSFHGRIMRESLLSMMLYFNRRLGQSLEDQGRRMWGRPDYSGCVGLFSQRVMIVGLGALGQSMAELLKAFGAHVTGVKRNPESFAGSPCVDRVISFDALEEALPEADHVVLLLPGGTATDGIFTARHFNAMRPGAYLYNLGRGNCYREEDLVAALEDGRLAGAGLDVFAEEPLPASSPLWEQRNVLITPHSSAISREYLDLFIQEWLETLRKGAPQNEGHHHHHH", "soluble on expression in E. coli": "not soluble"},
      {"sequence": "ETQQRCVTATDYDTFVSERFGSIIQAVQTFTDSTKPGYAFIAAKPKSGLYLTTVQREDIKNYLKDYNLAPITPSIISPNYLFIKTNLKVTYALNKLQESEQWLEGQIIDKIDRYYTEDVEIFNSSFAKSKMLTYVDDADHSVIGSSATIQMVREVQNFYKTPEAGIKYNNQIKDRSMESNTFSFNSGRKVVNPDTGLEEDVLYDVRIVSTDRDSKGIGKVIIGPFASGDVTENENIQPYTGNDFNKLANSDGRDKYYVIGEINYPADVIYWNIAKINLTSEKFEVQTIELYSDPTDDVIFTRDGSLIVFENDLRPQYLTIDLEPISQLEHHHHHH", "soluble on expression in E. coli": "soluble"},
      {"sequence": "MESGREVWPRDPKKAKQAIKQAEFKCEIDDTHETFVSEASRKNYMEAHHLIPLRMQHDFENSLDVVGNIVSICPNCHRLIHYGRDKDKKKVLELLFELEHHHHHH", "soluble on expression in E. coli": "soluble"},
      {"sequence": "MTPKRALISLTSYHGPFYKDGAKTGVFVVEILRSFDTFEKHGFEVDFVSETGGFGWDEHYLPKSFIGGEDKMNFETKNSAFNKALARIKTANEVNASDYKVFFASAGHGALFDYPKAKNLQDIASKIYANGGVIAAICHGPLLFDGLIDIKTTRPLIEGKAITGFPLEGEIALGVDDILRSRKLTTVERVANKNGAKYLAPIHPWDDYSITDGKLVTGVNANSSYSTTIRAINALYSVEHHHHH", "soluble on expression in E. coli": "soluble"},
      {"sequence": "MSEVTDLTVIEIKPEQAPVLYVAGGLDAYLEQIRQAVNEVPDLSTKKGRDRVASLAAQVSRSKTAIEKPGREYLKRLKEAVRPAEAEIKRFVDACDELRDATRRPLTEWEAEQERIKAEEAMNALHAEALEMNIKFDQELAAKFEADHEMALLMNKDFDRDREEQRRLAEQARREHEERIKREAAEQARRDAEAKHKAEIEAAARREAEEKARAELAERQRIEAEQRAEREKKETEERARREKEEAVAAERRRQEEAEAARLVEEQRKAEEEARRAADKEHRRTVNRRVYADLIAQGIPEEYAQKAVLAIAGGKVQDAHIKY", "soluble on expression in E. coli": "not soluble"},
      {"sequence": "GKENDAGDIVEKFDPTEAQSVEVQDERPETTIGRGKPTDEVVLLSEAHRPEEKMAAYEDEHGTYIMNSKDLRAVQHVERLTKMGVHSLKIEGRTKSFYYCARTAQVYRKAIDDAVAGKPFDESLMGTLESLAHRGYTEGFLRRHTHDTYQNYDYGYSVSDAQQFVGEFTGKRRGDMAEVEVKNKFVVGDSLELMTPKGNVVFTLEAMENRKSESIEDAKGNGHFVFIPVPEDMDLEYGLLMRNLNAGQDTRNPTGK", "soluble on expression in E. coli": "not soluble"},
      {"sequence": "MGSDKIHHHHHHMKYEIVLKGSYALLKVFLSTGESVVVEPGAMVYMKGPIEVKTSATGGVWKALKRAILGGENFFMNTYISRGESEIGLAPQLPGDIDVIPLKDILYVQSTSFLACDPSVEMDVSFGGLKSFFSGEGIFLLKFIGHGDVAVSSFGGIKSVELQPGEEFTVDTGHVVAFDGTVKWNVRTFGGLKSTLFGGEGLVCTFTGPGRVYIQTRNYPAFVEWIKSLVPRQTGSR", "soluble on expression in E. coli": "not soluble"},
      {"sequence": "MSQIISTLNNIDLVTQDKVNLISNMQIQAKYENAEYKSFIDQLIDNLNTTRSIDIYNLFLSLNSEICLNLDTVDNISKIISSYLSILNTNFTRISPSESKQKNQLAEKGINKFLVTMDANFAQMQNQDKLLPNNIDSIIEIVQEVIIFFEKNNLNYNSDFKIQLNKTLRKIKSSLILKDQKNDTYSDKESINQVEATITDQKTIQGSEKWKTLIEKIEVLKALVESERIFETSIVYNDIQNLLVNFDPKEYFPEIFFPLYKKIAPFIGNIHKNIDYYSSSIQWSIAQKMYNIDYKSFLDTLEKMPENNFLNSSSDITKNFFYETSSEVEKTPIEEHKIIADTDAIKEEIVIKQRTNNKKNQNDPVEKISNKIDEDYFEDLFDI", "soluble on expression in E. coli": "not soluble"},
      {"sequence": "AAAAAAMIVQRVVLNSRPGKNGNPVAENFRMEEVYLPDNINEGQVQVRTLYLSVDPYMRCRMNEDTGTDYITPWQLSQVVDGGGIGIIEESKHTNLTKGDFVTSFYWPWQTKVILDGNSLEKVDPQLVDGHLSYFLGAIGMPGLTSLIGIQEKGHITAGSNKTMVVSGAAGACGSVAGQIGHFLGCSRVVGICGTHEKCILLTSELGFDAAINYKKDNVAEQLRESCPAGVDVYFDNVGGNISDTVISQMNENSHIILCGQISQYNKDVPYPPPLSPAIEAIQKERNITRERFLVLNYKDKFEPGILQLSQWFKEGKLKIKETVINGLENMGAAFQSMMTGGNIGKQIVCISEEISL", "soluble on expression in E. coli": "soluble"},
      {"sequence": "MADVLERVTKIIVDRLGVEETEVVPAASFKEDLGADSLDVVELVMQLEDEFEMEISDEDAEKIATVGDAVTYIESHL", "soluble on expression in E. coli": "not soluble"},
      {"sequence": "MEQLGSEPETYQIMKTIEKSIIENDNVDLEQYLLFWEHVCNVMCSWGTIFSFVVKDVTAKLEKLTQMRSSDPDSYRTIIGMATKESENGTIRNQKPNRSGTGHLMVLNRALEFVIDLLDGVFTSNDENVSTIARSSYDKHLSQLHSWPIRTAVAAALYTLPRKPEFLCRLRGDMPEDDDNQFHDIFNRDGRDIVRRVNKLVENFELTDYNPSA", "soluble on expression in E. coli": "not soluble"},
      {"sequence": "MALDNAKTSQKLQSLAELDGKAPSHRNLNVQTWSTAEGAKVLFVEARELPMFDLRLIFAAGSSQDGNAPGVALLTNAMLNEGVAGKDVGAIAQGFEGLGADFGNGAYKDMAVASLRSLSAVDKREPALKLFAEVVGKPTFPADSLARIKNQMLAGFEYQKQNPGKLASLELMKRLYGTHPYAHASDGDAKSIPPITLAQLKAFHAKAYAAGNVVIALVGDLSRSDAEAIAAQVSAALPKGPALAKIEQPAEPKASIGHIEFPSSQTSLMLAQLGIDRDDPDYAAVSLGNQILGGGGFGTRLMSEVREKRGLTYGVYSGFTPMQARGPFMINLQTRAEMSEGTLKLVQDVFAEYLKNGPTQKELDDAKRELAGSFPLSTASNADIVGQLGAMGFYNLPLSYLEDFMRQSQELTVEQVKAAMNKHLNVDKMVIVSAGPTVAQKPLEHHHHHH", "soluble on expression in E. coli": "not soluble"},
      {"sequence": "MNSLFLLLFICFNSGCGRKYYEEDIDRAFRSAEAEILPFRPHNVFSSDDSLMLNYSIAALAAIKMAQKTRDPRQKLPHHLCPLKKYNCLYGKYRHSDGRCTNIFFALSGSAYSSFSRRIPANYDDDISTPRLHGYRNGLLPPPAVVEKQIARTPAIYAISLTNTFLEFSEFLYNDLVKFVRLQDGLGCCGTGKSGECLNFGENFLDCYIRSAPSPRAHCSLGRREQMNLATAFLDAGPIYQDLRDTSKGKISSSFTLESTTKSSIHSLLIDEHNWVVDQIQKKFPDMGLELIFEEARKFVIAELQHITFEQFLPILLGDETMKKYDLRASHCDGGSCHEVEANTLNEFGSAVGLFYKFMTSSDKIYNPSLYSTSDFSTSPTSSSSKSPNVAEIISKGRDHGIATYSQWRKECGGGELKTYEDLIDLIDSNILKSLRDLYPDVLDVDLILLGIAENPVYGSLLGPTFGCIMALQFQKTKFGDTYWYTNKLTEDQLEEVKKTSISAMMCRHQKTSIIQKDVFKAADNFQNIPIFCNSSVFAKPDFSKWVETPEKHKNEQFDDILGECILEVFEARNRQRPATLQEGLHNSVALKSYGSMMLAKDEAVNEANVSLILLEATKKLVKLKHIELDSIQSVNIGEDFGKKSDSQCNPKNLPCDSTNPYRSYTGWCNNLETPSLANTFRELRRLLPPAYEDGIDLPRSKTITGSRLPSPRVISNMVHHAKKIEHVKYSHFVMEFGQFIDHDITHSPVDQNSDGTALNCSRCDSGRFVSPSCFPIPVPVNDVHFEPFSCLSFVRSLPAQKTLGYRNQMNQVSAYLDGSVMYGSTKCEGDRLRTFQDGKMKTTQTSRAPRHYGITLSQSDESEQDGCVSAPDAPCFIAGDDRNSQQTLLIAVHSVFHREHERITTTLKEINPNWDDEKIYQETRKLISAEFAHIVYNEYLPIIIGQKLIDDYDLRPRQDGYYDGYENCDASILQPFATAAFRFGHSTVTRFTPMQETVHDPATCVVDLASDFLNMSKIYDNEAVEQILGGMHGKHQMMTDRFVDDAIRNFLFSDRGRRGTGLDLISINIQRGRDHGIPPYNHYRSFCGLSRLTSFYSIFSDINQDGLTAIGKVYESPDDIDLFTGIVSEKTIPGGIVGPTAACIIAEQFRRLKKCDRFYYENGEDHSKFSASQLKEVRKTSMSALICANTKVPKISKDVFSVPDPFRYS", "soluble on expression in E. coli": "soluble"},
      {"sequence": "EVLRVQDKYFHIKCFVCKACGCDLAEGGFFVRQGEYICTLDYQRLYGTRCFSCDQFIEGEVVSALGKTYHPDCFVCAVCRLPFPPGDRVTFNGKECMCQKCSLPVSVGSSAHLSQGLRSCGGCGTEIKNGQALVALDKHWHLGCFKCKSCGKLLNAEYISKDGLPYCEADYHAKFGIRCDSCEKYITGRVLEAGEKHYHPSCALCVRCGQMFAEGEEMYLQGSSIWHPACRQAARTEDRNKETRTSSESIISVPASSTSGSPSRVIYAKLGGEILDYRDLAALPKSKAIYDIDRPDMISYSPYISHSAGDRQSYGEGDQDDRSYKQCRTSSPSSTGSVSLGRYTPTSRSPQHYSRPGSESGRSTPSLSVLSDSKPPPSTYQQAPRHFHVPDTGVKDNIYRKPPIYRQHAARRSDGEDGSLDQDNRKKSSWLMLKGDADTRTNSPDLDTQSLSHSSGTDRDPLQRMAGDSFHSQYKIYPYDSLIVTNRIRVKLPKDVDRTRLERHLSPEEFQEVFGMSIEEFDRLALWKRNDLKKKALLF", "soluble on expression in E. coli": "soluble"},
      {"sequence": "MSSQNDYQSNGRYDNIYSQIDSEAKMSFSVDVLANIAIELQRGIGHQDRFQRLITTLRQVLECDASALLRYDSRQFIPLAIDGLAKDVLGRRFALEGHPRLEAIARAGDVVRFPADSELPDPYDGLIPGQESLKVHACVGLPLFAGQNLIGALTLDGMQPDQFDVFSDEELRLIAALAAGALSNALLIEQLESQNMLPGDATPFEAVKQTQMIGLSPGMTQLKKEIEIVAASDLNVLISGETGTGKELVAKAIHEASPRAVNPLVYLNCAALPESVAESELFGHVKGAFTGAISNRSGKFEMADNGTLFLDEIGELSLALQAKLLRVLQYGDIQRVGDDRCLRVDVRVLAATNRDLREEVLAGRFRADLFHRLSVFPLSVPPLRERGDDVILLAGYFCEQCRLRQGLSRVVLSAGARNLLQHYSFPGNVRELEHAIHRAVVLARATRSGDEVILEAQHFAFPEVTLPTPEVAAVPVVKQNLREATEAFQRETIRQALAQNHHNWAACARMLETDVANLHRLAKRLGLKD", "soluble on expression in E. coli": "not soluble"}
    ]}
  ]
}
